Reference: US11034757B2, “Combination therapies using agents that target tumor-associated stroma or tumor cells and tumor vasculature” (BIOMED VALLEY DISCOVERIES, INC., priority 2014, dated 2021)

What was measured:
UACC melanoma cells = test: TEM8 antibody efficacy in UACC melanoma model; assay type: in vivo, mouse; settings: 15 mg/kg, 3 times per week for 3-4 weeks; start at 50 mm^3
Experimental: UACC melanoma cells were cultured and injected subcutaneously into mice. Treatment was initiated with a tumor volume of 50 mm^3, and treatment groups consisted of one of four TEM8 antibodies (M825, M830, M863, and M822), each dosed at 15 mg/kg, 3 times per week for 3-4 weeks.

[1] = tested on: MC38 colon carcinoma liver metastasis; test: M830 in MC38 colon carcinoma liver metastasis model; assay type: in vivo, C57BL/6 mice
Source text: C57BL/6 mice were challenged with MC38 colon carcinoma liver metastasis by intrasplenic injections of cultured cells.

[2] = tested on: H460 non-small cell lung carcinoma xenograft; test: M830 in the H460 non-small cell lung carcinoma xenograft model; assay type: in vivo, mouse; settings: combination partner Paclitaxel
Experimental: Tumor cells were cultured in RPMI-1640 medium supplemented with 10% fetal bovine serum, 2 mM glutamine, 100 units/mL penicillin G sodium, 100 μg/mL streptomycin sulfate, and 25 μg/mL gentamicin. The tumor cells were grown in tissue culture flasks in a humidified incubator at 37° C., in an atmosphere of 5% CO2 and 95% air.
Criteria for Regression Responses
Animals were monitored for regression responses.
The statistical tests were not adjusted for multiple comparisons.
Cultured H460 cells were harvested during exponential growth and resuspended in phosphate buffered saline at a concentration of 1×10^8 cells/mL. 1.0×10^7 tumor cells were injected subcutaneously into the flank of athymic nude mice. Animals were euthanized when tumors reached the pre-determined volume endpoint of 2000 mm^3 or on the final day (Day 88), whichever came first. […] Each treatment produced a significant survival difference versus controls (P<0.01). The median TTE for controls was 22.8 days, establishing a maximum possible TGD of 65.2 days (286%) for the 88-day study.

B1: M830: anti-TEM8 monoclonal antibody (hIgG1); VH SEQ ID NO:5, VL SEQ ID NO:6 (antibody, V domains shown)
VH: EVQLVESGGGVVQPGRSVRLSCAASGFTFSTYTMHWVRQAPGKGLEWVAIISNDGSNKYYADPVRGRFTISRDNSKNTLYLQMNSLRAEDTAVYYCVRGSSWYRGNWFDPWGQGTLVTVSS
VL: DIQMTQSPSSLSASVGDRVTIACRASQTISRYLNWYQQKPGKAPKLLIYAASSLQSGVSSRFSGSGSGTEFTLTISSLQPEDFATYFCQQTYSPPITFGQGTRLEIKR
modifications: TEM830 mAb VH; TEM830 mAb VL
effect on tumor growth in the UACC melanoma model (UACC melanoma cells): effective at slowing tumor growth | effect on survival ([1]; P=0.0001): significantly improved the survival | median survival ([1]; vehicle 11 days): 17 days | regression (at Day 21, vs. vehicle column) [2]: (−61%
